{"source": "patent US9994813", "about": "“Role for the perlman syndrome exonuclease Dis3l2 in the Lin28-let-7 pathway” (Children's Medical Center Corporation)", "binders": {"B1": {"name": "mmu-pre-let-7a-1+14U (ssRNA)", "RNA": "UGAGGUAGUAGGUUGUAUAGUUUUAGGGUCACACCCACCACUGGGAGAUAACUAUACAAUCUACUGUCUUUCCUUUUUUUUUUUUUU"}}, "key": {"[1]": {"molecular_target": "T1, Dis3l2 (recombinant 6xHis) (Mus musculus, UniProt Q8CI75 Q8CI75:1-870)", "T1 sequence": "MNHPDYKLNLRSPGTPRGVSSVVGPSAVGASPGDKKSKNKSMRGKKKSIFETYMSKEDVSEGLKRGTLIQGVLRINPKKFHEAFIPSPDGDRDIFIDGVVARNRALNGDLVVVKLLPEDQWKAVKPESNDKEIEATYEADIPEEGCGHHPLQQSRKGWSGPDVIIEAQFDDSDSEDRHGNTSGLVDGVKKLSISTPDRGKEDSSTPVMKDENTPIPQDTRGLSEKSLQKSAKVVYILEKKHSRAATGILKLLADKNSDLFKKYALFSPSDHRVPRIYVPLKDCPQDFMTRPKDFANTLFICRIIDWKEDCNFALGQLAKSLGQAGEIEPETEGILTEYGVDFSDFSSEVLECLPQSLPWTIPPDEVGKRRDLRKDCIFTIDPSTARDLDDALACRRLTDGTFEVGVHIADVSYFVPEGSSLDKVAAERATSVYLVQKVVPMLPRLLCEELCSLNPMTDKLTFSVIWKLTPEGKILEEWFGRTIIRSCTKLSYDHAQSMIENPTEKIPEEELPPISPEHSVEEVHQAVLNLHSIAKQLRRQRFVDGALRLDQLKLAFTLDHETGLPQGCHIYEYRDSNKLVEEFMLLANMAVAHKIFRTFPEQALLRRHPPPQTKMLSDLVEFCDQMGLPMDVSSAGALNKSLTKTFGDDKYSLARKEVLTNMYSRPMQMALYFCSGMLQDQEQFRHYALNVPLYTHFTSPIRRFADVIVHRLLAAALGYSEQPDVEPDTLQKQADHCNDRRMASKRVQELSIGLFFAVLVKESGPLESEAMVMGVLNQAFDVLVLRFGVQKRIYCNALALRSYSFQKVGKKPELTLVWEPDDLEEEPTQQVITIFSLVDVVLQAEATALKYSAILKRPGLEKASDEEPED", "assay": "cleavage_in_vitro; relative RNA stability difference versus non-uridylated; 0.05 mM MgCl2, 50 mM KCl, pH 7.5, 37 C", "conditions": "tags: 6xHis, pETDuet-1, E. coli; label: 5'-32P; hairpin with 3' oligoU tail", "protocol": "RNA degradation assays were performed in a total of 20 µl reaction using 6.25 nM 5' end-labeled pre-miR-21, pre-let-7a-1, or pre-let-7a-1+14U RNA (see Table 2) together with Dis3l2 and/or Lin28A. The reactions were set up in the RNA degradation buffer (20 mM HEPES-KOH pH 7.5, 50 mM KCl, 0.05 mM MgCl2, 1 mM DTT) and incubated at 37° C. for 90 minutes. For time-course assays; recombinant 6x-His Dis3l2 was incubated with radiolabeled pre-let-7a-1 or pre-let-7a-1+14U. Bands from three independent experiments were quantified using ImageJ (NIH) and plotted using Prism (Graphpad). Values were fitted to one-phase decay curves with error bars representing +/- s.d. (n=3). For Uridylation-stimulated degradation assays; in vitro uridylation assays were performed as described previously[20,26,27] except with the addition of 10 µM cold competitor uridine triphosphate and immunopurified Dis3l2 where indicated."}, "Dis3l2 D389N": {"molecular_target": "T2, Dis3l2 D389N (Mus musculus, UniProt Q8CI75 Q8CI75:1-870, D389N)", "T2 sequence": "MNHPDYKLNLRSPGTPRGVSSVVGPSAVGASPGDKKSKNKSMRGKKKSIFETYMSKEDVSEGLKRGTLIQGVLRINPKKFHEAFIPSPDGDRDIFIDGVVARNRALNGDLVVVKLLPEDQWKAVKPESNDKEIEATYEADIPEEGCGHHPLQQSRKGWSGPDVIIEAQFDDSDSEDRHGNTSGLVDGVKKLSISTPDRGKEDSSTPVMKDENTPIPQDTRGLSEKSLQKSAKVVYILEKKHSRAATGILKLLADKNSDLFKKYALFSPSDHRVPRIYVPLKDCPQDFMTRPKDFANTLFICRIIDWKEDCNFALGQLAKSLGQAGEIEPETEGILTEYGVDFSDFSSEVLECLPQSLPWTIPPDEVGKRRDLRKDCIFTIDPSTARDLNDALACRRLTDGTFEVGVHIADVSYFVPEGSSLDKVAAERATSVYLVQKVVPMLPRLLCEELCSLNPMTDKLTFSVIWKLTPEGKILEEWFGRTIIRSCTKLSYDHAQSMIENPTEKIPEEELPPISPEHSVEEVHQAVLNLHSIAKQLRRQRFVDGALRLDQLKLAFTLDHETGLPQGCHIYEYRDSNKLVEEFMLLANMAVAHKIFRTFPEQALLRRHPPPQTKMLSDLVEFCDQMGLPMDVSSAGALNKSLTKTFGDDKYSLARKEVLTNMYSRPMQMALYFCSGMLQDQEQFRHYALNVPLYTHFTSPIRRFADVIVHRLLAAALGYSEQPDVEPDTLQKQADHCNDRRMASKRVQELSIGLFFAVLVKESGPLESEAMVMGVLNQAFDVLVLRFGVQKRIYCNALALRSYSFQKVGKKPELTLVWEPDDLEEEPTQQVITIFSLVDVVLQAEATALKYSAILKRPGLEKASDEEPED", "assay": "EMSA; 1 nM RNA, 50 mM Tris pH 7.6, 100 mM NaCl", "conditions": "tags: 6xHis, E. coli; label: 5'-32P; hairpin with 3' oligoU tail", "protocol": "(§1) EMSA experiments were performed as described previously. Briefly, 1 nM of the indicated radiolabeled synthetic RNA was incubated in the binding buffer (50 mM Tris pH 7.6, 100 mM NaCl, 10 mM […], 1 unit/µl RNaseOUT) with varying concentrations of catalytically inert recombinant 6x-His Dis3L2 or recombinant 6x-His Lin28 in the absence of competitor RNA. Nucleoprotein complexes were resolved by 4-20% non-denaturing TBE gel electrophoresis (Biorad, #345-0059) and visualized by autoradiography."}, "Dis3l2 D389N (Flag)": {"molecular_target": "T3, Dis3l2 D389N (Flag) (Mus musculus, UniProt Q8CI75 Q8CI75:1-870, D389N)", "T3 sequence": "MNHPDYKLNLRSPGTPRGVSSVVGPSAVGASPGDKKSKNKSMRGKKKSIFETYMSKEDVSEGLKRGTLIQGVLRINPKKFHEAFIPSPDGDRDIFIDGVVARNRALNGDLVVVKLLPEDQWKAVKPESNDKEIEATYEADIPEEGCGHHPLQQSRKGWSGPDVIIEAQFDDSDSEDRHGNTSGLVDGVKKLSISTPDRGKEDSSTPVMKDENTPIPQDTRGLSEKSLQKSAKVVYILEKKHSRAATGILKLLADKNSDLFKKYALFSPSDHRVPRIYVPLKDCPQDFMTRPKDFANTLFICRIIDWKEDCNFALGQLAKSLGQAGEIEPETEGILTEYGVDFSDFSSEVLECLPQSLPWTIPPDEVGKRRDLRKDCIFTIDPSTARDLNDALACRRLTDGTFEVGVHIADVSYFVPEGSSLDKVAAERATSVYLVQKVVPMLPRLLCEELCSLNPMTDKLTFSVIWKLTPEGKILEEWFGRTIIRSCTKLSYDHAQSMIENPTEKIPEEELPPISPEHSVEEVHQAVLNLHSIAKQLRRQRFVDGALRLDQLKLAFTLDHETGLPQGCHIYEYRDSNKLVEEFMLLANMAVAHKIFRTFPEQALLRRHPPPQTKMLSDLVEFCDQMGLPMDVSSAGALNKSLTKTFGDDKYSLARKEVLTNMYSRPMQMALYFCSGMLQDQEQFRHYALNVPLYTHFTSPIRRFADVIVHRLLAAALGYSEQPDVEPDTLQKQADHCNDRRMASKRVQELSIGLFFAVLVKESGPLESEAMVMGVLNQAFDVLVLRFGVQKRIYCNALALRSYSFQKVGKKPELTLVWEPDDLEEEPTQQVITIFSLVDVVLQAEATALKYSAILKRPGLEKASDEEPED", "assay": "EMSA; retains binding though catalytically inactive", "conditions": "tags: Flag, immunopurified from V6.5 ESC; label: 5'-32P; hairpin with 3' oligoU tail"}, "Lin28A": {"molecular_target": "T4, Lin28A (UniProt Q8K3Y3 Q8K3Y3:1-209)", "T4 sequence": "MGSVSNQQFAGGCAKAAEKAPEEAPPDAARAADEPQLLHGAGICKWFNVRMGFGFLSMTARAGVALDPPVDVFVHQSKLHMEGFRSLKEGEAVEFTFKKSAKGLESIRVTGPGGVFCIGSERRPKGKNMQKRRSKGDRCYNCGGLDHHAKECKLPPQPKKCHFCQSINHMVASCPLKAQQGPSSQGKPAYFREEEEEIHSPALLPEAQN", "assay": "EMSA", "conditions": "tags: 6xHis, E. coli; label: 5'-32P; hairpin with 3' oligoU tail", "protocol": "as §1"}}, "data": [{"binder": "B1", "values": [{"measurement": "activity", "setting": "[1]", "result": "> 10", "unit": "fold"}, {"measurement": "binding result", "setting": "Dis3l2 D389N", "result": "binds"}, {"measurement": "binding result", "setting": "Dis3l2 D389N (Flag)", "result": "binds"}, {"measurement": "binding result", "setting": "Lin28A", "result": "binds"}]}]}
